Test [1] addresses β-amyloid (1-40). The test is described as follows: sandwich EIA, solid phase BAN-50a, label BA-27a-HRP (1000-fold dilution).
Test [2] deals with β-amyloid (1-40). The test is described as follows: sandwich EIA, solid phase BA-27a, label BAN-052a-HRP.
Test [3] has as its target β-amyloid (1-38). The test is described as follows: sandwich EIA, solid phase BAN-50a, label BA-27a-HRP.
For test [4], the target named is β-amyloid (1-42). Described as above.
Test [5] concerns the target β-amyloid (1-39). Described as above.
The target in test [6] is β-amyloid (1-40). The test is described as follows: sandwich EIA, solid phase BAN-052a, label BA-27a-HRP.
The target of test [7] is β-amyloid (1-38). As to the kind of experiment: sandwich EIA, solid phase BAN-50a, label BA-27a-HRP; against β-amyloid (1-40).
Test [8] addresses β-amyloid (1-42). The description is as above.
The target in test [9] is β-amyloid (1-39). The description is as above.
Test [10] has as its target β-amyloid (1-40). The test is described as follows: sandwich EIA, solid phase BAN-50a, label BA-27a-HRP (1500-fold dilution).
The target of test [11] is β-amyloid (1-40). As to the kind of experiment: competitive EIA with β-Gal-labeled βA(1-40); unlabeled peptide varied.

By IC50 is commonly meant the concentration that gives 50% inhibition. A lower IC50 goes with inhibition by little substance. Consider BA-27a (antibody), for which the detection sensitivity in test [1] stood at 0.2 pg/well; in test [2] it was 10 pg/well; in test [3], 85 pg/well; in test [4], 18 pg/well; in test [5] it was 17 pg/well; in test [6] it was 0.6 pg/well. Moreover, the detection sensitivity in [10] came to 0.2 pg/well. Also, the cross reactivity in test [7], in [8] and in [9] was < 2% throughout. Also, the IC50 in [11] came to 0.2 µM.

For the origin of these results see patent US5750349.
